Reference: US20100068807

Target: GST fusion IRF7 (GST fused to amino acids 422-457 of mouse IRF-7, from pGST-IRF7) [GST: P08515]

B1: 6myc-mIKKα (wild-type mouse IKKα with 6 myc tags, expressed from pSRα-6myc-mIKKα in 293T cells) (protein)
chain: MERPPGLRPGAGGPWEMRERLGTGGFGNVSLYQHRELDLKIAIKSCRLELSSKNRERWCHEIQIMKKLDHANVVKACDVPEELNFLINDVPLLAMEYCSGGDLRKLLNKPENCCGLKESQILSLLSDIGSGIRYLHENKIIHRDLKPENIVLQDVGGKTIHKIIDLGYAKDVDQGSLCTSFVGTLQYLAPELFENKPYTATVDYWSFGTMVFECIAGYRPFLHHLQPFTWHEKIKKKDPKCIFACEEMTGEVRFSSHLPQPNSLCSLIVEPMESWLQLMLNWDPQQRGGPIDLTLKQPRCFALMDHILNLKIVHILNMTSAKIISFLLPCDESLHSLQSRIERETGINTGSQELLSETGISLDPRKPASQCVLDGVRGCDSYMVYLFDKSKTVYEGPFASRSLSDCVNYIVQDSKIQLPIIQLRKVWAEAVHYVSGLKEDYSRLFQGQRAAMLSLLRYNANLTKMKNTLISASQQLKAKLEFFRKSIQLDLERYSEQMTYGISSEKMLKAWKEMEEKAIHYSEVGVIGYLEDQIMSLHTEIMELQKSPYGRRQGDLMESLEQRAIDLYKQLKHRPPDHLYSDSTEMVKIIVHTVQSQDRVLKELFGHLSKLLGCKQKIIDLLPKVEVALSNIKEADNTVMFMQGKRQKEIWHLLKIACTQSSARSLVGSSLEGTVTPPVSAWLPPTLADREHPLTCVVTPQDGETLAQMIEENLNCLGHLSTIIREANEDQSSSLMSLDWSWLAE
  phosphorylation of substrate (in vitro kinase assay with [γ-32P]ATP, SDS-PAGE and autoradiography): IRF7 was phosphorylated by IKKα
